Experimental data published in patent publication US20220177587A1, “METHODS AND USES OF VARIANT CD80 FUSION PROTEINS AND RELATED CONSTRUCTS” (Alpine Immune Sciences, Inc., priority 2018, published 2022).
pEC50: −log10 of the molar value. Values belong to the substance of their own block, whether it stands above or below them.

Experiments:
human CTLA-4 (human) [1] = target: human CTLA-4 (human) (UniProt P16410); test: flow cytometry, CHO cells expressing CTLA4
Target sequence in this assay (P16410 36-223): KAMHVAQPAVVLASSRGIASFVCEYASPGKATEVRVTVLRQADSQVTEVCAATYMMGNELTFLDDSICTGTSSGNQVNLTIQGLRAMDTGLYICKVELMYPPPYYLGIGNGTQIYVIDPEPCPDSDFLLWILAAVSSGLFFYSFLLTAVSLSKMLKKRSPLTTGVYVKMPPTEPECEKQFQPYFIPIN

PD-L1 (human) [2] = target: PD-L1 (human) (UniProt Q9NZQ7); test: flow cytometry, CHO cells expressing PD-L1
Target sequence in this assay (Q9NZQ7 19-290): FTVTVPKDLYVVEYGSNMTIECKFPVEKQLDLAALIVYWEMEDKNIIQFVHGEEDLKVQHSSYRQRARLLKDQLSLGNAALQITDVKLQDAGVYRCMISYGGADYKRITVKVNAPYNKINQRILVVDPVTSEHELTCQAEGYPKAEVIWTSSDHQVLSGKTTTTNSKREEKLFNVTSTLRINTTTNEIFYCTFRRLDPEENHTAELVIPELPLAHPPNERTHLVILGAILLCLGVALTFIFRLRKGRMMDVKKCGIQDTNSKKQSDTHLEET

CD28 (human) [3] = target: CD28 (human) (UniProt P10747); test: flow cytometry, Jurkat cells (CD28)
PD-L1 (human) [4] = target: PD-L1 (human) (UniProt Q9NZQ7)
Target sequence in this assay (Q9NZQ7 19-290): as above

CD28 (human) [5] = target: CD28 (human) (UniProt P10747)
PD-L1 (human) [6] = target: PD-L1 (human) (UniProt Q9NZQ7); test: flow cytometry, CHO cells stably expressing PD-L1
human CTLA-4 (human) [7] = target: human CTLA-4 (human) (UniProt P16410); test: flow cytometry, CHO cells stably expressing CTLA4
human CTLA-4 (human) [8] = target: human CTLA-4 (human) (UniProt P16410); test: flow cytometry, CHO cells expressing huCTLA-4
Target sequence in this assay (P16410 36-223): as the sequence (P16410 36-223) above

PD-L1 (human) [9] = target: PD-L1 (human) (UniProt Q9NZQ7); test: flow cytometry, CHO cells expressing huPD-L1
Target sequence in this assay (Q9NZQ7 19-290): as the sequence (Q9NZQ7 19-290) above

Chain of wild-type CD80 IgV-Fc (inert), as in Example 12 (Fc fusion) (chain): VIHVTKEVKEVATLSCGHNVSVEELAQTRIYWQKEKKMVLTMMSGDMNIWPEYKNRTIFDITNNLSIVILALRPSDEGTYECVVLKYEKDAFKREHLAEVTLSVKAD
Chain of wild-type CD80 IgV (SEQ ID NO: 150)-Fc (inert) with GSG4S linker (Fc fusion) (chain): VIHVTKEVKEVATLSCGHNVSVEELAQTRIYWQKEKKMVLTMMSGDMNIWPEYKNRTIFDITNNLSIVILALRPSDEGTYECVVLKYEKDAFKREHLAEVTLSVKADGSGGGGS

Substance: CD80 T13R/Q27L/Q33L/E35D/T41S/M47V/N48K/V68M/L85M IgV-Fc (Fc fusion)
MFI at 33.3 nM (human CTLA-4 (human) [1]): 109 MFI
Fold change to WT CD80 (PD-L1 (human) [2]): 63.5 fold
MFI at 33.3 nM (PD-L1 (human) [2]): 3270 MFI
Fold change to WT CD80 (CD28 (human) [3]): 0.5 fold
MFI at 33.3 nM (CD28 (human) [3]): 14.6 MFI

Substance: CD80 T13R/Q33R/E35D/M38I/M47L/V68M IgV-Fc (Fc fusion)
MFI at 33.3 nM (human CTLA-4 (human) [1]): 193 MFI
Fold change to WT CD80 (PD-L1 (human) [2]): 87 fold
MFI at 33.3 nM (PD-L1 (human) [2]): 4480 MFI
MFI at 33.3 nM (CD28 (human) [3]): 13.8 MFI

Substance: CD80 T13R/Q33R/E35D/M38I/M47L/V68M/L85M/R94Q IgV-Fc (Fc fusion)
MFI at 33.3 nM (human CTLA-4 (human) [1]): 19100 MFI
MFI at 33.3 nM (PD-L1 (human) [2]): 20400 MFI
MFI at 33.3 nM (CD28 (human) [3]): 15.2 MFI

Substance: CD80 V22L/Q27H/E35D/M47I/A71G IgV-Fc (inert) (Fc fusion)
Jurkat/IL2 reporter RLU at 50 nM, K562/OKT3/PD-L1 aAPC (PD-L1 (human) [4]): 1120 RLU
Jurkat/IL2 reporter RLU at 50 nM, K562/OKT3/PD-L1 aAPC (CD28 (human) [5]): 1120 RLU

Substance: Fc control (Example 24)
Fold change to WT CD80 (CD28 (human) [3]): 0.2 fold
MFI at 11.1 nM (CD28 (human) [3]): 26 MFI
Fold change to WT CD80 (PD-L1 (human) [6]): 1.8 fold
MFI at 11.1 nM (PD-L1 (human) [6]): 158 MFI
Fold change to WT CD80 (human CTLA-4 (human) [7]): 0 fold
MFI at 11.1 nM (human CTLA-4 (human) [7]): 106 MFI

Substance: variant CD80 IgV-Fc (inert) H18F/A26H/E35D/M47L/V68M/A71G/D90G (Fc fusion)
MFI at 33.3 nM (CD28 (human) [3]): 8390 MFI
MFI at 33.3 nM (PD-L1 (human) [6]): 20700 MFI
MFI at 33.3 nM (human CTLA-4 (human) [7]): 16400 MFI

Substance: variant CD80 IgV-Fc (inert) H18R/A26P/E35D/D46N/M47V/V68M/A71G/D90P (Fc fusion)
MFI at 33.3 nM (PD-L1 (human) [6]): 29300 MFI
MFI at 33.3 nM (human CTLA-4 (human) [7]): 17300 MFI

Substance: variant CD80 IgV-Fc (inert) H18V/A26G/E35D/M47V/V68M/A71G/D90G (Fc fusion)
MFI at 33.3 nM (CD28 (human) [3]): 8190 MFI
MFI at 33.3 nM (PD-L1 (human) [6]): 66200 MFI
MFI at 33.3 nM (human CTLA-4 (human) [7]): 25400 MFI

Substance: variant CD80 IgV-Fc (inert) H18V/A26R/E35D/M47L/V68M/A71G/D90G (Fc fusion)
MFI at 33.3 nM (CD28 (human) [3]): 9620 MFI
MFI at 33.3 nM (PD-L1 (human) [6]): 73200 MFI
MFI at 33.3 nM (human CTLA-4 (human) [7]): 23200 MFI

Substance: variant CD80 IgV-Fc D46V/M47L (Fc fusion)
MFI at 33.3 nM (human CTLA-4 (human) [8]): 49700 MFI
MFI at 33.3 nM (PD-L1 (human) [9]): 3900 MFI

Substance: variant CD80 IgV-Fc E35D/D46V (Fc fusion)
MFI at 33.3 nM (human CTLA-4 (human) [8]): 50100 MFI
MFI at 33.3 nM (PD-L1 (human) [9]): 3970 MFI

Substance: variant CD80 IgV-Fc E35D/M47V/V68M (Fc fusion)
MFI at 33.3 nM (PD-L1 (human) [9]): 16600 MFI

Substance: wild-type CD80 IgV (SEQ ID NO: 150)-Fc (inert) with GSG4S linker (Fc fusion)
MFI at 33.3 nM (PD-L1 (human) [6]): 47 MFI

Substance: wild-type CD80 IgV-Fc (inert), as in Example 12 (Fc fusion)
MFI at 33.3 nM (CD28 (human) [3]): 102 MFI
MFI at 33.3 nM (PD-L1 (human) [6]): 165 MFI
MFI at 33.3 nM (human CTLA-4 (human) [7]): 1380 MFI

Further lines, results first:

MFI at 33.3 nM (human CTLA-4 (human) [1]): 141 MFI
Fold change to WT CD80 (PD-L1 (human) [2]): 62.7 fold
MFI at 33.3 nM (PD-L1 (human) [2]): 3230 MFI
Fold change to WT CD80 (CD28 (human) [3]): 0.5 fold
MFI at 33.3 nM (CD28 (human) [3]): 15.7 MFI
Substance: CD80 T13R/Q33L/E35D/M47L/V68M/L85M IgV-Fc (Fc fusion)

MFI at 33.3 nM (human CTLA-4 (human) [1]): 105 MFI
Fold change to WT CD80 (PD-L1 (human) [2]): 77 fold
MFI at 33.3 nM (PD-L1 (human) [2]): 3970 MFI
Fold change to WT CD80 (CD28 (human) [3]): 0.5 fold
MFI at 33.3 nM (CD28 (human) [3]): 16 MFI
Substance: CD80 T13R/Q33L/E35D/M47V/T62S/V68M/L85M IgV-Fc (Fc fusion)

MFI at 33.3 nM (human CTLA-4 (human) [1]): 16900 MFI
MFI at 33.3 nM (CD28 (human) [3]): 191 MFI
Substance: CD80 V22D/E24D/E35D/M47V/V68M IgV-Fc (Fc fusion)

pEC50 (CD28 (human) [3]): 6.78
MFI at 11.1 nM (CD28 (human) [3]): 139 MFI
pEC50 (PD-L1 (human) [6]): 7.51
MFI at 11.1 nM (PD-L1 (human) [6]): 86 MFI
Substance: WT CD80 ECD-Fc (R&D Systems) (Fc fusion)

MFI at 66.7 nM (CD28 (human) [3]): 120
MFI at 66.7 nM (PD-L1 (human) [6]): 104
pEC50 (human CTLA-4 (human) [7]): 8.40
MFI at 66.7 nM (human CTLA-4 (human) [7]): 25300
Substance: Wildtype CD80 ECD-Fc (effector Fc, Example 31) (Fc fusion)

MFI at 33.3 nM (CD28 (human) [3]): 8190 MFI
MFI at 33.3 nM (human CTLA-4 (human) [7]): 19800 MFI
Substance: variant CD80 IgV-Fc (inert) A26P/E35D/M47I/V68M/A71G/D90G (Fc fusion)

MFI at 33.3 nM (CD28 (human) [3]): 6350 MFI
MFI at 33.3 nM (PD-L1 (human) [6]): 64800 MFI
MFI at 33.3 nM (human CTLA-4 (human) [7]): 20300 MFI
Substance: variant CD80 IgV-Fc (inert) H18L/E35D/M47V/V68M/A71G/D90G (Fc fusion)

MFI at 33.3 nM (PD-L1 (human) [6]): 68200 MFI
MFI at 33.3 nM (human CTLA-4 (human) [7]): 22400 MFI
Substance: variant CD80 IgV-Fc (inert) H18V/A26N/E35D/M47V/V68M/A71G (Fc fusion)

MFI at 33.3 nM (PD-L1 (human) [6]): 55400 MFI
MFI at 33.3 nM (human CTLA-4 (human) [7]): 13700 MFI
Substance: variant CD80 IgV-Fc (inert) H18V/A26P/E35D/M47V/V68L/A71G (Fc fusion)

MFI at 33.3 nM (CD28 (human) [3]): 82.2 MFI
MFI at 33.3 nM (PD-L1 (human) [6]): 26500 MFI
Substance: variant CD80 IgV-Fc (inert) H18Y/A26N/E35D/M47F/V68M/A71G/D90G (Fc fusion)

MFI at 33.3 nM (human CTLA-4 (human) [8]): 32500 MFI
MFI at 33.3 nM (PD-L1 (human) [9]): 29700 MFI
Substance: variant CD80 IgV-Fc D46V/M47L/V68M/L85Q (Fc fusion)

MFI at 33.3 nM (human CTLA-4 (human) [8]): 7570 MFI
MFI at 33.3 nM (PD-L1 (human) [9]): 4170 MFI
Substance: variant CD80 IgV-Fc D46V/V68M/L85Q (Fc fusion)

MFI at 33.3 nM (human CTLA-4 (human) [8]): 24800 MFI
Substance: variant CD80 IgV-Fc E35D/V68M/K89N (Fc fusion)

MFI at 33.3 nM (PD-L1 (human) [9]): 23700 MFI
Substance: variant CD80 IgV-Fc M47V/N48K/V68M/K89N (Fc fusion)

MFI at 33.3 nM (CD28 (human) [3]): 57.8 MFI
MFI at 33.3 nM (PD-L1 (human) [6]): 161 MFI
Substance: wild-type CD80 ECD-Fc (inert), as in Example 12 (Fc fusion)
